Experimental data taken from US20130295071A1 (SHIRE HUMAN GENETIC THERAPIES, published 2013).

Biological target: the molecule itself
Assay: sedimentation velocity AUC, 150 mM NaCl, pH 6.0; self-association

B1: mouse galactocerebrosidase (mGalC), recombinant (enzyme)
chain: YVLDDSDGLGREFDGIGAVSGGGATSRLLVNYPEPYRSEILDYLFKPNFGASLHILKVEIGGDGQTTDGTEPSHMHYELDENYFRGYEWWLMKEAKKRNPDIILMGLPWSFPGWLGKGFSWPYVNLQLTAYYVVRWILGAKHYHDLDIDYIGIWNERPFDANYIKELRKMLDYQGLQRVRIIASDNLWEPISSSLLLDQELWKVVDVIGAHYPGTYTVWNAKMSGKKLWSSEDFSTINSNVGAGCWSRILNQNYINGNMTSTIAWNLVASYYEELPYGRSGLMTAQEPWSGHYVVASPIWVSAHTTQFTQPGWYYLKTVGHLEKGGSYVALTDGLGNLTIIIETMSHQHSMCIRPYLPYYNVSHQLATFTLKGSLREIQELQVWYTKLGTPQQRLHFKQLDTLWLLDGSGSFTLELEEDEIFTLTTLTTGRKGSYPPPPSSKPFPTNYKDDFNVEYPLFSEAPNFADQTGVFEYYMNNEDREHRFTLRQVLNQRPITWAADASSTISVIGDHHWTNMTVQCDVYIETPRSGGVFIAGRVNKGGILIRSATGVFFWIFANGSYRVTADLGGWITYASGHADVTAKRWYTLTLGIKGYFAFGMLNGTILWKNVRVKYPGHGWAAIGTHTFEFAQFDNFRVEAAR
notes: also called rmGALC; rmGalC
binding result: binds
